Changes are numbered by the printed parent chain.
B1: IMPI-004 (antibody, V domains shown)
VH: QVQLVESGGGVVQPGRSLRLSCAASGFTFSSYGMHWVRQAPGKGLEWVAVIWYDGGNKYYADSVKGRFTISRDNSKNTLYLQMNSLRAEDTAVYYCARVNVLMGYGMDVWGQGTTVTVSS
VL: EIVLTQSPGTLSLSPGDKATLSCRASQSIISSFLAWYQQKPGQAPRLLIYGASSRATGIPDRFSGSGSGTDFTLTISRLEPEDFAVYYCQQYGSSLTFGGGTKVEIK
B2: IMPI-067 (antibody, V domains shown)
VH: QVQLVESGGGVVQPGTSLRLSCAASGFTFNSFGMHWVRQAPGKGLEWVAVISYDGSSKYYADSVKGRFTISRDNSKNTLYLQMNSLRAEDTAVYYCAKDEGDYDDYYYGMDVWGQGTTVTVSS
VL: EIVLTQSPGSLSLSPGERATLSCRASQSLSSRYLAWYHQKPGQAPRLLIYGASSRATGIPDRFSGSGSGTDFTLTISGLEPEDFAVYYCQQYGNSITFGGGTKVEIK
B3: IMPI-038 (antibody, V domains shown)
VH: B2 VH with T16R, N30S, F32Y, S57D, D99T, E100V, G101A, D102G, D104Y, D105Y
VL: DIQMTQSPSSVSASVGDRVTVTCRASQDISSWLAWFQQKPGKAPKFLIYDASNLENGVPSRFSGSGSGTDFTLTISSLQPEDFATYYCQQAKSFPWTFGQGTKVEIN
B4: IMPI-013 (antibody, V domains shown)
VH: EVQLVESGGGLVQPGRSLRLSCAASGFTFDDYAMHWVRQTPGKGLEWVSGISWNSGSIGYADSVKGRFTISRDNAKNSLYLQMNSLRAEDTALYYCTKDLGLGIGFYYGLDVWGQGTTVTVSS
VL: AIQMTQSPSSLSTSVGDRVTITCRASQGIRNDLGWYQLKPGKAPKLLIYDASTLQSGVPSRFSGSGSGTDFTLTISSLEPEDLATYYCLHHYTYPWTFGHGTKVELK
B5: IMPI-002 (antibody, V domains shown)
VH: EVQLVESGGGLIQPGGSLRLSCAASGVTVSSNYMSWVRQAPGKGLEGVSVIYSGGSTYYADSVKGRFTISRDNSKNTLYLQMNSLRAEDTAVYYCARDTVVYGMDVWGQGTTVTVSS
VL: DIQLTQSPSFLSASVGDRVTITCWASQGISSYLAWYQQKPGKAPKLLIYAASTLQSGVPSRFSGSGSGTEFTLTISSLQPEDFATYYCQQLNSYPLTFGGGTKVEIK
B6: IMPI-052 (antibody, V domains shown)
VH: B5 VH with S35N, S56T
VL: B5 VL with A50T
B7: IMPI-028 (antibody, V domains shown)
VH: B5 VH with V27F, G47W, T99Y, V100G, V101D, Y102L, G103Y, M104F, V106Y, T112L
VL: EIVLTQSPGTLSLSPGERATLSCRASQSISSYLAWYQQKPGQAPRLLIYGASSRATGIPDKFSGSGSGTDFTLTISRLEPEDFAVYYCQQYGSSPRTFGQGTKVEIK
B8: IMPI-056 (antibody, V domains shown)
VH: EVQLVESGGGLIQPGGSLRLSCAASGLTVSSNYMNWVRQAPGKKLEWVSVIYSGGSTFYADSVRGRFTISRDNSKNTLFLQMNSLRAEDSAVYYCARDLGPYGVDVWGQGTTVTVSS
VL: B5 VL with G100Q, K103R, V104L
B9: IMPI-068 (antibody, V domains shown)
VH: QVQLVESGGDVVQPGRSLRLSCAASGFTFSRYGMHWVRQAPGKGLEWVAVISYDGSDKYYADSVKGRFTISRDNSKNTLYLQMNSLRAEDTAVYYCAKQLPLYYYYYGMDVWGQGTTVTVSS
VL: AIQLTQSPSSLSASVGDRVTITCRASQGISSALAWYQQKPGKAPNLLIYDASSLESGVPSRFSGSGSGTDFTLTISSLQPEDFATYYCQQFNIYPHTFGPGTKVDIK
B10: YANG-1204 (antibody, V domains shown)
VH: QVQLVESGGGVVQPGRSLRLSCAVSGFTFSNYGIHWVRQAPGKGLVWVAVISYEGSIKYYGDSVKGRFTISRDNSKNTLYLQMNSLRAEDTAVYYCARGAVAGNDAFDIWGQGTMVTVSS
VL: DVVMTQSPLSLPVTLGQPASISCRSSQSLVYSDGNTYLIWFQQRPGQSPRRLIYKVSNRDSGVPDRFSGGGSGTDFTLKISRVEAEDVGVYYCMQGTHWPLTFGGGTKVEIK
B11: YANG-1118 (antibody, V domains shown)
VH: EVQLVESGGGLVKPGGSLRLSCAASGFTFSSYALNWVRQAPGKGLEWVSSISTGSSYIFYADSVKGRFTISRDNAKHSLSLQMNSLRAEDTAVYYCAKTGDLPFFDYWGQGTLVTVSS
VL: QSALTQPASVSGSPGQSITISCTGTSSDVGRYNYVSWYQQHPGKAPKLMIYEVSNRPSGVSNRFSGSKSGNTASLTISGLQAEDEADYYCISYTSSSTMVFGGGTKLTVL
B12: YANG-1207 (antibody, V domains shown)
VH: QVQLVESGGGVVQPGRSLRLSCAASGFTFSSYGMHWVRQAPGKGLEWVSVIWYDGTNKYYADSVKGRFTISRDNSKNTLYLQMNSLRAEDTAVYYCAREGVEFTGYFDYWGQGTLVTVSS
VL: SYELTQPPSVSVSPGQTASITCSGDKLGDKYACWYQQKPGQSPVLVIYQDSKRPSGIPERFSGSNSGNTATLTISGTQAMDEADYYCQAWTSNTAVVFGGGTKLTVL
B13: YANG-1205 (antibody, V domains shown)
VH: QVQLVQSGAEVKKPGASVKVSCKASGYTFTSYCIHWVRQAPGQGLEWMGIINPSGGGTIFAQKFQGRVTMTRDTSTTTVYMELGSLRSDDTALYYCARGWSYDFWSGPDYWGQGTLVSVSS
VL: DIVMTQTPLSLSVTPGQPASISCKSSQSLLHSDGKTYLYWYLQKPGQPPQLLIYEVSNRFSGVPDRFSGSGSGTDFTLKISRVGAEDVGIYYCMHSIKLPPTFGQGTKVEIK
B14: YANG-1202 (antibody, V domains shown)
VH: EMQLVESGGGLVQPGGSLRLSCAASGFTFSSFWMRWVRQAPGKGLEWVANIKQDGTEKYYVDSVKGRFTISRDNAKNSLYLQMNSLRAEDTAVYYCVRDRVGGDYYYYDMDVWGQGTTVTVSS
VL: DIQMTQSPSSLSASVGDRVTITCRASQDISNYLAWFQQKPGKAPKSLIYAASSLQSGVPSKFSGSGSGTDFTLTISGLQPEDSATYYCQQYNSYPRTFGQGTKVEIK
B15: YANG-1201 (antibody, V domains shown)
VH: QVQLQESGPGLVKPSGTLSLTCAVSGDSISNSKWWSWVRQPPGKGLEWIGEIFHSGSTNYNPSLKSRVTISVDKSQNQFSLKLNSVTAADTAVYYCARSASLYYYYGVDVWGQGTTVTVSS
VL: EIVLTQSPGTLSLSPGERATLSCRASQSVSNNYLAWYQQKPGQAPRLLIYGTSRRDTGIPDRFSGSGSGTDFTLTISRLEPEDFAVYYCEQYGSLPRTFGQGTKVEIK
B16: YANG-1206 (antibody, V domains shown)
VH: QVHLVESGGGMVQPGRSLRLSCAASGFTFSIYAMHWVRQAPGKGLEWVAVISYDGSNKYYADSVKGRFTISRDNSKNTLYLQMNSLRAEDTAVYYCAKVYGGSYWGGFDYWGQGTLVTVSS
VL: QSVLTQPPSVSGAPGQRVTISCTGTSSNIGSIYDVHWYQQLPGTAPKLLIYGNSNRPSGVPDRFSGSKSGTSASLAITGLQAEDEADYYCQSYDTSLSGSWVFGGGTKLNVL
B17: YANG-1203 (antibody, V domains shown)
VH: EVRLVESGGALVQPGRSLRLSCAASGFIFDGYAMHWVRQVPGKGLEWVSGISWNSGNIGYADSVKGRFTISRDNAKNSLYLQMNSLRAEDTALYYCAKDIRPSGKYYYGMDVWGQGTTVTVSS
VL: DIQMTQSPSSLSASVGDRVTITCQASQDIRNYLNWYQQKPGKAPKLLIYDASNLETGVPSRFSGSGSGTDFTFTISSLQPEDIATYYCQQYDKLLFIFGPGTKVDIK
B18: YANG-2302 (antibody, V domains shown)
VH: QVQLVQSGAEVRKPGASVKVSCKVSGYTLPELAIHWVRQAPGKGLEWMGGFIPEDGDTIYAQKFQGRVTMTEDTSTDTAYMDLTSLRSEDAAVYYCTSGWAAPGYNYGMAVWGQGTTVTVSS
VL: EVVLTQSPGTLSLSSGERATLSCRASQSVSSNYLAWYQKKPGQAPRLLIYGASSRVTGIPDRFGGSGSGTDFTLTISRLEPEDFAVYYCQQYDASPYSFGQGTKLDIK
B19: YANG-2205 (antibody, V domains shown)
VH: QIQLVQSGAEVKKPGASVKFSCKTSGYTFTSYYMVWVRQAPGQGLEWMGIIKPSGGNTIYAQKFQGRVTMTRDTSTNTVYMDLSSLRSEDTAVYYCARTGDRAFDVWGHGTMITVSS
VL: QSVLTQPPSVSAAPGQKVTISCSGSSSNIGNNFVSWYQQFPGTAPKLLIYDNNKRPSGIPDRFSGSKSGTSATLGITGLQTGDEADYYCGTWDSSLGAGVFGGGTKLTVL
B20: YANG-2208 (antibody, V domains shown)
VH: B19 VH with K12R, K19R, T28I, S31N, S84N, S85N, Y95F, H109Q, I113V
VL: B19 VL with V10M, S25N, Q38R, G97S
B21: YANG-2207 (antibody, V domains shown)
VH: B19 VH with I2M, F20I, S31N, M81L, D101N, I113V
VL: B19 VL
B22: YANG-2206 (antibody, V domains shown)
VH: B19 VH with F20L, Y60F, S84N, I113V
VL: B19 VL with F33Y, L107V
B23: YANG-2301 (antibody, V domains shown)
VH: QVHLIQSGAEVKKPGASVKVSCKVSGYTLIEVSVHWVRQAPGKGLEWMGGFDPEAAETIYAQKFQGRVTMTEDTSTDTAYMDLSSLKSEDSAVYYCAIGPAVTGRNSGEYYYYYGMDVWGQGTTVTVAS
VL: EIVMTQSPATLSVSPGERATLSCRASQSVNSNLAWYQQKPGQAPRLLIYAVSTRATGLPARFSGSGSGTEFTLTISSLQSEDFVVYYCHQYNNWPLTFGGGTKVEIK

What follows are binders tested against full-length stabilised spike trimer protein of SARS-CoV-2 virus (in-house, soluble ECD with trimeris (SARS-CoV-2, UniProt P0DTC2 14-1208; P10104 458-484) (assay: not given).
For B1, the “HTRF deltaF” value was 952 deltaF.
With B2 the “HTRF deltaF” value was 963 deltaF.
With B3 the “HTRF deltaF” value was 1310 deltaF.
B4 was tested, and the “HTRF deltaF” value was 1420 deltaF.
B5 was tested, and the “HTRF deltaF” value was 913 deltaF.
For B6, the “HTRF deltaF” value was 1130 deltaF.
For B7, the “HTRF deltaF” value was 480 deltaF.
With B8 the “HTRF deltaF” value was 1630 deltaF.
For B9, the “HTRF deltaF” value was 1600 deltaF.

These binders were tested against SARS-CoV-2 spike protein bearing furin mutation and truncation in retention sequence, on pseudoviral particles (SARS-CoV-2, UniProt P0DTC2 14-1255) (assay: cell-based or functional assay).
In the case of B10, the “PV neutralization % (Ab 1 ug/mL)” value is reported as 44.8%.
In the case of B11, the “PV neutralisation IC50” value is reported as 0.25 nM and the “PV neutralization % (Ab 1 ug/mL)” value is reported as 99.3%.
In the case of B12, the “PV neutralization % (Ab 1 ug/mL)” value is reported as 39.9%.
With B13 the “PV neutralization % (Ab 1 ug/mL)” value was 40.2%.
For B14, the “PV neutralization % (Ab 1 ug/mL)” value was 51.9%.
In the case of B15, the “PV neutralization % (Ab 1 ug/mL)” value is reported as 40.6%.
B16 was tested, and the “PV neutralization % (Ab 1 ug/mL)” value was 45.9%.
B17 was tested, and the “PV neutralization % (Ab 1 ug/mL)” value was 41.4%.

Each binder was assayed against SARS-CoV-2 spike protein bearing furin mutation and truncation in retention sequence, presented in t (SARS-CoV-2, UniProt P0DTC2 14-1273) (assay: cell-based or functional assay).
B18 was tested, and the “PV neutralisation IC50” value was 0.61 nM and the “PV neutralization % (Ab 1 ug/mL)” value was 52.2%.
B19 was tested, and the “PV neutralisation IC50” value was 3.35 nM and the “PV neutralization % (Ab 1 ug/mL)” value was 47.5%.
B20 was tested, and the “PV neutralisation IC50” value was 4.68 nM and the “PV neutralization % (Ab 1 ug/mL)” value was 38.2%.
With B21 the “PV neutralisation IC50” value was 2.59 nM and the “PV neutralization % (Ab 1 ug/mL)” value was 57.8%.
For B22, the “PV neutralisation IC50” value was 3.96 nM and the “PV neutralization % (Ab 1 ug/mL)” value was 42%.
B23 was tested, and the “PV neutralisation IC50” value was 0.53 nM and the “PV neutralization % (Ab 1 ug/mL)” value was 56.4%.

From US20250026813A1 (published 2025)
